This note sets out measurements from publication PMC3017428 (Molecular cell, 2010).

The chains are these.
B1: Spn1(148–293) (domain or fragment, S. cerevisiae, UniProt Q06505 148-293, looked up)
chain: DDLEQYLDEKILRLKDEMNIAAQLDIDTLNKRIETGDTSLIAMQKVKLLPKVVSVLSKANLADTILDNNLLQSVRIWLEPLPDGSLPSFEIQKSLFAALNDLPVKTEHLKESGLGRVVIFYTKSKRVEAQLARLAEKLIAEWTRPI

Common to all, as to test: ITC
In one assay the target is T1, Spt6(239–1117) (S. cerevisiae, UniProt P23615 239-1117).
T1 sequence (looked up): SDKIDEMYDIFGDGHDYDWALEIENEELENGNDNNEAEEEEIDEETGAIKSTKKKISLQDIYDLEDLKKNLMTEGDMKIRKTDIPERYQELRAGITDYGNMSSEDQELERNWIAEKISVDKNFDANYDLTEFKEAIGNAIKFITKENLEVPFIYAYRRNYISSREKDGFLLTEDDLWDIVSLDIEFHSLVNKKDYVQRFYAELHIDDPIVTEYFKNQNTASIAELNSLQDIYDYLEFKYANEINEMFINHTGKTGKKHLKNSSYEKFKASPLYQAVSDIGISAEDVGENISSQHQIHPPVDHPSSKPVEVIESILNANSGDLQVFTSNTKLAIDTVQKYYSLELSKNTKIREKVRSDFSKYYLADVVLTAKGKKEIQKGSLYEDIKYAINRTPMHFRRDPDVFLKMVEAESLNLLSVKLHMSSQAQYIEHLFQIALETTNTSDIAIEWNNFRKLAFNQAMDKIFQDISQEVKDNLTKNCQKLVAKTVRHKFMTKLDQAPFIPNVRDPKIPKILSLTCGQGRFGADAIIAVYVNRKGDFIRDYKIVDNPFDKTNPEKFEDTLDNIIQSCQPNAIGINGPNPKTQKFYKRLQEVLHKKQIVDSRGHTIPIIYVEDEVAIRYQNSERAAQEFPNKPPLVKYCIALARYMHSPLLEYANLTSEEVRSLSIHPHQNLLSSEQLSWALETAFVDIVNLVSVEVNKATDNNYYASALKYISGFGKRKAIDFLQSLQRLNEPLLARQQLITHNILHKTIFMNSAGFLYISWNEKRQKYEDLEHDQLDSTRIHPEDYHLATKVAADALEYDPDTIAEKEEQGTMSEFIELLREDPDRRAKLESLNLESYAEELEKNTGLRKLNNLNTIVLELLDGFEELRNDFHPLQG

The assay “Spn1(148–293)” deals with B1.
For a further assay, the target named is T2, Spn1(148–293)-R263D (S. cerevisiae, UniProt Q06505 148-293, R263D).
T2 sequence (looked up): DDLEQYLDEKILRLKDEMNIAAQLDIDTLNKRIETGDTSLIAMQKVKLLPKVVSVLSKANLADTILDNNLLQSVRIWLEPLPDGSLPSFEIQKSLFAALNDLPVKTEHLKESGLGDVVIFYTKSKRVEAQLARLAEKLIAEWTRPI

As for B1, in the assay with Spt6(239–1117), the stoichiometry N (commonly a count of units in the complex or per binding partner) came out at 1.

B2: Spt6(239–268) (domain or fragment, S. cerevisiae, UniProt P23615 239-268, looked up)
chain: SDKIDEMYDIFGDGHDYDWALEIENEELEN
B2: in the assay with Spn1(148–293), the “stoichiometry N” value was found to be 1. In addition, the affinity in the assay with Spn1(148–293)-R263D, expressed as Kd, was 30 µM.

B3: Spt6(239–268)-F249K (domain or fragment, S. cerevisiae, UniProt P23615 239-268, looked up)
chain: SDKIDEMYDIKGDGHDYDWALEIENEELEN
With B3, the affinity with Spn1(148–293), expressed as Kd, was 11 µM.
